One molecule from article PMC6893557 (2019) can be followed below.

The target in the test is pYEEI. Description: SPR. (In general: SPR reads the build-up and loss of mass on a sensor chip optically.)

B1: Hck SH2 (protein)
chain: WFFKGISRKDAERQLLAPGNMLGSFMIRDSETTKGSYSLSVRDYDPRQGDTVKHYKIRTLDNGGFYISPRSTFSTLQELVDHYKKGNDGLCQKLSVPC
By Kd is commonly meant the free concentration of one partner at which half of the binding sites on the other are occupied at equilibrium, for simple one-to-one binding. Regarding B1, binding was put at a Kd of 42 µM.
